# In patent US20150344570A1 (published 2015):
# Positions count from the first letter of the chain named. In names and notes the source's numbering stands.
# T1: FcγRIIb extracellular domain with C-terminal His tag (human, UniProt P31994 43-217)
# T1 construct: extracellular domain; also called FcgRIIb; 2b
# T1 sequence (looked up): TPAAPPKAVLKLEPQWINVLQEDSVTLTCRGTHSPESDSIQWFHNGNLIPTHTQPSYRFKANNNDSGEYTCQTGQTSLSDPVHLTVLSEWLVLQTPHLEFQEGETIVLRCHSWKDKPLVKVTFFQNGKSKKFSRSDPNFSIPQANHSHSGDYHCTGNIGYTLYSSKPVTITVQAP
# T2: FcgRIIb (human, UniProt P31994 43-217)
# T2 construct: extracellular domain; also called FcγRIIb; 2b; not shown: His tag attached to the C terminus
# T2 sequence (looked up): T1 sequence (looked up)
# T3: FcgRIIaR (human, UniProt P12318 34-217)
# T3 construct: extracellular domain; also called FcγRIIa R; FcgRIIa type R; not shown: His tag attached to the C terminus
# T3 sequence (looked up): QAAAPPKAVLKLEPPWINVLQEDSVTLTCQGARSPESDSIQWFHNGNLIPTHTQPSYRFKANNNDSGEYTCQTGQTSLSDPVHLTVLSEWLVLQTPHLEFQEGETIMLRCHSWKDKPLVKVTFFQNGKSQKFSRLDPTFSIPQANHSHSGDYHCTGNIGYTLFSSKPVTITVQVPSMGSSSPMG
# T4: FcgRIIaH (human, UniProt P12318 34-217)
# T4 construct: extracellular domain; also called FcγRIIa H; FcgRIIa type H; not shown: His tag attached to the C terminus
# T4 sequence (looked up): T3 sequence (looked up) with R134H
# B1: GpH7-A5/GpH7-B3 variant Y296_11K/GpL16-k0 (antibody, human IgG1, kappa)
# heavy 1: not shown
# heavy 2: not shown
# light: DIVMTQSPLSLPVTPGEPASISCQASESLVHSNRNTYLHWYLQKPGQSPQLLIYKVSNRFSGVPDRFSGSGSGTDFTLKISRVEAEDVGVYYCSQNTHVPPTFGQGTKVEIERTVAAPSVFIFPPSDEQLKSGTASVVCLLNNFYPREAKVQWKVDNALQSGNSQESVTEQDSKDSTYSLSSTLTLSKADYEKHKVYACEVTHQGLSSPVTKSFNRGEC
# notes: Heterodimerized anti-glypican-3 IgG1; alteration only in the GpH7-B3 chain, EU numbering; also called He Ab
# B2: GpH7-A5/GpH7-B3 variant Y296_13S/GpL16-k0 (antibody, human IgG1, kappa)
# heavy 1: not shown
# heavy 2: not shown
# light: B1 light
# notes: as for B1
# B3: GpH7-A5/GpH7-B3 variant Y296_19Q/GpL16-k0 (antibody, human IgG1, kappa)
# heavy 1: not shown
# heavy 2: not shown
# light: B1 light
# notes: as for B1
# B4: GpH7-A5/GpH7-B3 variant Y296_12R/GpL16-k0 (antibody, human IgG1, kappa)
# heavy 1: not shown
# heavy 2: not shown
# light: B1 light
# notes: as for B1
# B5: H240-Kn032/H240-Hl032/L73-k0 (antibody, human IgG1, kappa)
# heavy 1: QDQLVQSGAEVKKPGASVKVSCKASGFNIKDTYIQWVRQAPGQGLEWMGRIDPLRKQTKYREKFEGRVTITADTSTNTAYMELSSLRSEDTAVYYCVRSGREFDYWGQGTLVTVSSASTKGPSVFPLAPSSKSTSGGTAALGCLVKDYFPEPVTVSWNSGALTSGVHTFPAVLQSSGLYSLSSVVTVPSSSLGTQTYICNVNHKPSNTKVDKKVEPKSCDKTHTCPPCPAPELLGGPDVFLFPPKPKDTLMISRTPEVTCVVVDVSHEDPEVKFNWYVDGVEVHNAKTKPREEQYNSTYRVVSVLTVLHQDWLNGKEYKCKVSNKALPLPEEKTISKAKGQPREPQVCTLPPSRDELTKNQVSLWCLVKGFYPSDIAVEWESNGQPENNYKTTPPVLDSDGSFFLYSKLTVDKSRWQQGNVFSCSVMHEALHNHYTQKSLSLSP
# heavy 2: B5 heavy 1 with C348Y, D355C, W365S, L367A, Y406V
# light: DIQMTQSPSSLSASVGDRVTITCRASQDIHKYIAWYQQKPGQAPRLLIQYTSTLQPGVPSRFSGSGSGTDYTFTISSLQPEDIATYYCLQYEQLRTFGGGTKVEIKRTVAAPSVFIFPPSDEQLKSGTASVVCLLNNFYPREAKVQWKVDNALQSGNSQESVTEQDSKDSTYSLSSTLTLSKADYEKHKVYACEVTHQGLSSPVTKSFNRGEC
# notes: Anti-epiregulin IgG1, knobs-into-holes; S239D/A330L/I332E in both H chains (comparison antibody)
# B6: H240-Kn037/H240-Hl036/L73-k0 (antibody, human IgG1, kappa)
# heavy 1: B5 heavy 1 with G235A, L329A
# heavy 2: B5 heavy 1 with G235A, L329A, C348Y, D355C, W365S, L367A, Y406V
# light: B5 light
# B7: H240-Kn189/H240-Hl068/L73-k0 (antibody, human IgG1, kappa)
# heavy 1: B5 heavy 1 with L233S, L234Y, G235W, D238M, H267D, S297A, A326D, L329A, E331I
# heavy 2: QDQLVQSGAEVKKPGASVKVSCKASGFNIKDTYIQWVRQAPGQGLEWMGRIDPLRKQTKYREKFEGRVTITADTSTNTAYMELSSLRSEDTAVYYCVRSGREFDYWGQGTLVTVSSASTKGPSVFPLAPSSKSTSGGTAALGCLVKDYFPEPVTVSWNSGALTSGVHTFPAVLQSSGLYSLSSVVTVPSSSLGTQTYICNVNHKPSNTKVDKKVEPKSCDKTHTCPPCPAPELLGGPSVFLFPPKPKDTLMISRTPEVTCVVVDVSHEEPEVKFNWYVDGVEVHNAKTKPREEQYNSTYRVVSVLTVLHQDWLNGKEYKCKVSNDALPKPIEETISKAKGQPREPQVYTLPPSRCELTKNQVSLSCAVKGFYPSDIAVEWESNGQPENNYKTTPPVLDSDGSFFLVSKLTVDKSRWQQGNVFSCSVMHEALHNHYTQKSLSLSP
# light: B5 light
# notes: Anti-epiregulin heterodimerized IgG1, knobs-into-holes
# B8: H240-Kn120/H240-Hl068/L73-k0 (antibody, human IgG1, kappa)
# heavy 1: B5 heavy 1 with L233Y, L234Y, G235W, D238M, H267D, S297A, A326D, L329A, E331I
# heavy 2: B7 heavy 2
# light: B5 light
# notes: as for B7
# B9: H240-Kn198/H240-Hl076/L73-k0 (antibody, human IgG1, kappa)
# heavy 1: B5 heavy 1 with L234Q, G235W, D238M, H267D, D269E, S297A, L329A, E331I
# heavy 2: B7 heavy 2 with K329M
# light: B5 light
# notes: as for B7
# B10: H240-Kn184/H240-Hl068/L73-k0 (antibody, human IgG1, kappa)
# heavy 1: B5 heavy 1 with L233E, L234Y, G235W, D238M, H267D, S297A, A326D, L329A, E331I
# heavy 2: B7 heavy 2
# light: B5 light
# notes: as for B7
# Target: T1, FcγRIIb extracellular domain with …
# Experiment: SPR (Biacore), antibody captured via antigen peptide, FcγR as analyte; relative binding
# Method: (§1) The heterodimerized antibodies He Abs in which one of the H chains was introduced with an alteration were assayed for their binding activities to each activating FcγR and inhibitory FcγR according to the method described in Example 4. […] The activating FcγRs in FIGS. 26, 27, 28, and 29 are FcγRIa, FcγRIIa (R), FcγRIIa (H), and FcγRIIIa, respectively.
# (§2) Analysis of interaction between objective antibody and the FcγR was carried out using Biacore T100 (GE Healthcare). HBS-EP+ (GE Healthcare) was used as the running buffer, and the measurement temperature was set to 25° C. Chips produced by immobilizing the antigen peptide by the amine coupling method to a Series S Sencor Chip CM5 (GE Healthcare), or alternatively, chips produced by allowing preliminarily biotinylated antigen peptides to interact with and immobilize onto a Series S Sensor Chip SA (certified) (GE Healthcare) were used. Antibodies of interest were captured onto an antigen peptide-immobilized chip, and allowed to interact to each FcγR diluted with running buffer. To regenerate and repeatedly use the chip, the antibodies captured on the chip were washed off by reacting 10 mM glycine-HCl, pH 1.5.
row,Binder,He/Con_2b
1,B1,72.8 % of GpH7-A5/GpH7-B3/GpL16-k0 (=100)
2,B2,86.3 % of GpH7-A5/GpH7-B3/GpL16-k0 (=100)
3,B3,89.3 % of GpH7-A5/GpH7-B3/GpL16-k0 (=100)
4,B4,79.5 % of GpH7-A5/GpH7-B3/GpL16-k0 (=100)

# Target: T5, FcγRIa extracellular domain with C-terminal His tag (human, UniProt P12314 16-292)
# T5 construct: extracellular domain; also called FcgRI; 1a
# T5 sequence (P12314 16-292): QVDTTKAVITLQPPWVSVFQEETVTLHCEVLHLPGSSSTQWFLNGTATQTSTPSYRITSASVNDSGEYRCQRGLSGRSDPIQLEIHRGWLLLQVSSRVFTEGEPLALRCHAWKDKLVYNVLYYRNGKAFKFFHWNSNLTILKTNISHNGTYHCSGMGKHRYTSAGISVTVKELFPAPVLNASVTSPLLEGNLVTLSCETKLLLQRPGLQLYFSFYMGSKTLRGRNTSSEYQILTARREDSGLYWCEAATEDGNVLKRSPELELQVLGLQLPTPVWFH
# Experiment: as above
# Method: as §1, §2
row,Binder,He/Con_1a
1,B1,105 % of GpH7-A5/GpH7-B3/GpL16-k0 (=100)
2,B2,105 % of GpH7-A5/GpH7-B3/GpL16-k0 (=100)
3,B3,112 % of GpH7-A5/GpH7-B3/GpL16-k0 (=100)
4,B4,106 % of GpH7-A5/GpH7-B3/GpL16-k0 (=100)

# Target: T2, FcgRIIb
# Experiment: SPR (Biacore); KD of H240-Kn033/H240-Hl033/L73-k0 divided by KD of this variant
# Method: (§3) H240-Kn204/H240-Hl211/L73-k0 and H240-Kn205/H240-Hl212/L73-k0 were prepared according to the method of Reference Example 1, by combining H240-Kn204 as one of the H chains and L73-k0 as the L chains with H240-Hl211 as the other H chain, and by combining H240-Kn205 as one of the H chains and L73-k0 as the L chains with H240-Hl212 as the other H chain, and then expressing them. The binding of the prepared variants to FcgRIa, FcgRIIaR, FcgRIIaH, FcgRIIb, FcgRIIIaF, and FcgRIIIaV was measured according to the method of Reference Example 8.
# (§4) “fold 2aR”, “fold 2aH”, “fold 2b”, “fold 3aF”, and “fold 3aV” show the relative binding activity of each variant to FcgRIIaR, FcgRIIaH, FcgRIIb, FcgRIIIaF, and FcgRIIIaV, respectively, when the binding activity of H240-Kn033/H240-Hl033/L73-k0, a variant produced by introducing only alterations that promote formation of a heterodimerized antibody into a native IgG1, is defined as 1. Specifically, they are values obtained by dividing the KD value of H240-Kn033/H240-Hl033/L73-k0 for each FcgR by the KD value of an individual variant for each FcgR.
# (§5) Analysis of interaction between objective antibody and the FcγR was carried out using Biacore T100 (GE Healthcare), Biacore T200, Biacore A100, and Biacore 4000. HBS-EP+ (GE Healthcare) was used as the running buffer, and the measurement temperature was set to 25° C. Chips produced by immobilizing the antigen peptide by the amine coupling method to a Series S sensor Chip CM5 (GE Healthcare), chips produced by allowing preliminarily biotinylated antigen peptides to interact with and immobilize onto a Series S Sensor Chip SA (certified) (GE Healthcare), chips produced by immobilizing Protein L (ACTIGEN, BioVision) to Series S Sencor Chip CM5 (GE Healthcare), or chips produced by immobilizing Protein A/G (Thermo Scientific) to Series S Sencor Chip CM5 (GE Healthcare) were used. Antibodies of interest were captured onto these chips, and allowed to interact to each FcγR diluted with running buffer.
row,Binder,fold 2b
1,B5,5.3 fold
2,B6,8.7 fold
3,B7,22 fold
4,B8,22 fold
5,B9,0.5 fold
6,B10,22 fold

# Target: T3, FcgRIIaR
# Experiment: as above
# Method: as §3, §4, §5
row,Binder,fold 2aR
1,B5,2.2 fold
2,B6,25.5 fold
3,B7,32.2 fold
4,B8,32.2 fold
5,B9,1.2 fold
6,B10,27.4 fold

# Target: T6, FcgRIIIaV (human, UniProt P08637 17-208)
# T6 construct: extracellular domain; also called FcγRIIIa V; 3aV; not shown: His tag attached to the C terminus
# T6 sequence (P08637 17-208 F176V limits assumed): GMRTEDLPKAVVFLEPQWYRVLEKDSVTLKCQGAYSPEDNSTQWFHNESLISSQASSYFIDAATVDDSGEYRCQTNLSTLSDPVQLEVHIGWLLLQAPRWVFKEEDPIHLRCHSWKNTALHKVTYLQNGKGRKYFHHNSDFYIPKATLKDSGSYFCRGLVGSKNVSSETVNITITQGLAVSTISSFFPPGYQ
# Experiment: as above
# Method: as §3, §4, §5
row,Binder,fold 3aV
1,B5,15.5 fold
2,B6,7.1 fold
3,B7,92.3 fold
4,B8,146 fold
5,B9,88.9 fold
6,B10,141 fold

# Target: T7, FcgRIIIaF (human, UniProt P08637 17-208)
# T7 construct: extracellular domain; also called FcγRIIIa F; 3aF; not shown: His tag attached to the C terminus
# T7 sequence (P08637 17-208): as the sequence (P08637 17-208 F176V limits assumed) above, with V160F counted along it
# Experiment: as above
# Method: as §3, §4, §5
row,Binder,fold 3aF
1,B5,31.9 fold
2,B6,13.8 fold
3,B7,90.6 fold
4,B8,121 fold
5,B9,193 fold
6,B10,132 fold

# Target: T4, FcgRIIaH
# Experiment: as above
# Method: as §3, §4, §5
row,Binder,fold 2aH
1,B5,0.8 fold
2,B6,11.3 fold
3,B7,10.8 fold
4,B8,11.8 fold
5,B9,3.7 fold
6,B10,7.4 fold

# Target: T5, FcγRIa extracellular domain with …
# Experiment: SPR (Biacore); He/Con_1a divided by He/Con_2b (FcγRIa binding over FcγRIIb binding)
# Method: as §1, §2
row,Binder,He_1a/2b (Ia/IIb)
1,B1,1.44 ratio
2,B2,1.22 ratio
3,B3,1.25 ratio
4,B4,1.34 ratio
